Data on two molecules can be found in patent publication US20230045015A1, “Use of Cobra neurotoxin polypeptide molecule in the treatment of nephropathy proteinuria” (priority 2019, published 2023).

Assay [1] deals with streptozotocin (STZ)-induced rat nephritis proteinuria. As to the kind of experiment: Streptozotocin (STZ)-induced nephritis proteinuria in rats. The note with it: urine, ELISA, streptozotocin (STZ) 55 mg/kg, 20 ug/kg by gavage once a day for 8 weeks. Format: in vivo.
Assay [2] deals with adriamycin induced rat nephritis proteinuria. As to the kind of experiment: Adriamycin induced nephritis proteinuria in rats (unilateral nephrectomy + adriamycin). In kind it is in vivo. As to conditions: urine, ELISA, adriamycin 3 + 2 mg/kg, 20 ug/kg by gavage once a day for 8 weeks. The source says:
1. Experimental Animals and Groups
80 male SD rats weighing 160-180 g were randomly divided into 2 groups: 20 in the control group and 60 in the model group. 40 rats in model group, after success in modeling, were randomly divided into cobra neurotoxin polypeptide treatment group and model group.
Each group of the three, namely control group, treatment group and model group were randomly divided into two groups again, with 10 rats in each group to test cobra neurotoxin peptide SEQ ID No. 1 and SEQ ID No. 2, the remaining rats were out of the groups.
Glomerulosclerotic rats were established by unilateral nephrectomy combined with tail vein injection of adriamycin twice every 2 weeks. Model. […] The control group was injected into caudal vein on the 4th and 18th day respectively with normal saline 0.5 ml.
During the 8 weeks of observation, the treatment group was given cobra neurotoxin polypeptide·20 ug/kg by gavage once a day, continuously for 8 weeks; the model group and the control group were perfused with normal saline once a day for 8 weeks.
3. Collection and Detection of Urinary Protein
After the last treatment, the rats were placed in the metabolic cage to collect 10 ml of urine, centrifuged at 3500 r/min for 10 min, the supernatant was extracted into the cryopreservation tube, stored in the refrigerator at −80° C. for standby, and the urinary A1 microglobulin was detected by enzyme-linked immunosorbent assay, β2-microglobulin, microalbumin, transferrin and immunoglobulin G (IgG), operate according to the instructions of ELISA kit.
Anesthetized rats were injected intraperitoneally with 1.5% Pentobarbital Sodium (50 mg/kg). After the corneal reflex disappeared, the abdominal cavity was opened and the abdominal aorta was exposed. The abdominal aorta collected 10 ml of whole blood and placed in a centrifuge tube. After standing for 2 h, centrifuged at 3500 r/min for 10 min. The supernatant was extracted in a cryopreservation tube and stored in a refrigerator at −80° C. for standby. The serum creatinine, urea nitrogen, cholesterol and triglyceride were detected by a full-automatic biochemical analyzer.
In general terms: An ELISA detects its analyte on a solid surface through an enzyme-linked reagent.

In assay [3] the target is T1, nicotinic acetylcholine receptor (nAChR) (Rattus norvegicus, UniProt P25108+P25110).
T1 construct: rat skeletal muscle nAChR extract; from tissue; host or cells: rat skeletal muscle (extract)
T1 sequence (P25108 21-457): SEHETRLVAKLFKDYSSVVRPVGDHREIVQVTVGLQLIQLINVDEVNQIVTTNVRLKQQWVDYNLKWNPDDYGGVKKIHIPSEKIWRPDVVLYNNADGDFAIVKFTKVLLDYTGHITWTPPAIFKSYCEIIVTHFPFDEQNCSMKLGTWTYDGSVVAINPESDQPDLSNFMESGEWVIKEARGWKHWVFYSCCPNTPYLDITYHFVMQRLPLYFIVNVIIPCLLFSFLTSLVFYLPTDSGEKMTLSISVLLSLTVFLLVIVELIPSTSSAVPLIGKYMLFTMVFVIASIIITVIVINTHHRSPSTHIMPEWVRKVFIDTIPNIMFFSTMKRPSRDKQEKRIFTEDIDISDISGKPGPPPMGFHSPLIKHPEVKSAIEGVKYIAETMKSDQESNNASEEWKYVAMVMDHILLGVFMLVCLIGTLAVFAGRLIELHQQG
T1 sequence (P25109 24-501 partner): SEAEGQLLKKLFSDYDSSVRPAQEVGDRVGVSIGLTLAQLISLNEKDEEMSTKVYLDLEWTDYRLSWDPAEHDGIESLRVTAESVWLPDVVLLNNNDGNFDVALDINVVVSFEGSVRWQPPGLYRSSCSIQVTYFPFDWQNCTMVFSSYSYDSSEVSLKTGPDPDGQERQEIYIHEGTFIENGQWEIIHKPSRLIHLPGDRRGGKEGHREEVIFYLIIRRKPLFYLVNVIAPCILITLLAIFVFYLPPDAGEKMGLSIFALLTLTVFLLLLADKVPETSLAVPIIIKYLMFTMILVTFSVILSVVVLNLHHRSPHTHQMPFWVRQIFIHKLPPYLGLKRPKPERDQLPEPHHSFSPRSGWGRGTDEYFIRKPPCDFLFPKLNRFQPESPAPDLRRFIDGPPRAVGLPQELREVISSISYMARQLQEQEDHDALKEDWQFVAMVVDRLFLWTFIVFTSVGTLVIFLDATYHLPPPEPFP
T1 sequence (P25110 22-517): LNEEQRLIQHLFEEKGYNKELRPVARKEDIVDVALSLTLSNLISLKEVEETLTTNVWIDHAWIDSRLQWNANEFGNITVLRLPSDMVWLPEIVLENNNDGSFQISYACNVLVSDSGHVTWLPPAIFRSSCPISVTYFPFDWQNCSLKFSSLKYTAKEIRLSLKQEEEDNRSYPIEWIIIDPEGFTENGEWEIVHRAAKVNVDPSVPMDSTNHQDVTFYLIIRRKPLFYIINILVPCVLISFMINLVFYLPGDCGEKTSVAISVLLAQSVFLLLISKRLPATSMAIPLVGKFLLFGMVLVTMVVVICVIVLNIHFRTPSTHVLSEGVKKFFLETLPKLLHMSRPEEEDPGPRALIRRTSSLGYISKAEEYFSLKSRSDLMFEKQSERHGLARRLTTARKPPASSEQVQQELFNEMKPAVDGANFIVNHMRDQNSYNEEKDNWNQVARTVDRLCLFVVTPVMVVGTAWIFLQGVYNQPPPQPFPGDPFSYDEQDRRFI
As to the kind of experiment: 125I-αBtx-nAChR binding inhibition (affinity test of snake venom protein peaks). The note with it: rat skeletal muscle nAChR extract; αBTX = 100%, BSA = 0%. The source says:
The method was based on the affinity test between 12 protein peaks and nicotinic acetylcholine receptor (nAChR).
The Principle of Affinity Test
Because α-bungarotoxin has high affinity with the nicotinic acetylcholine receptor (nAChR), the cobra neurotoxin can compete with α-bungarotoxin for binding with nicotinic acetylcholine receptor, and only these α-bungarotoxin labeled with the radionuclide 125I and bound with the nicotinic acetylcholine receptor will be precipitated and be counted by the Gamma immunocount instrument whilst unbound α-bungarotoxin will be washed out. Therefore, 12 isolated proteins binding inhibition rate of α-bungarotoxin with nicotinic acetylcholine receptor (nAChR) could be used to measure the affinity between the isolated proteins and nicotinic acetylcholine receptor (nAChR), that's each isolated protein's bioactivity, which could be further determined by the γ counting value per second (Bq) measured by immune counter, and it becomes the index of proteins bioactivity.
The way of implementation include the method of binding inhibition rate of 125I radioactive labeling-α-bungarotoxin with nicotinic acetylcholine receptor (%) which reflects the activity of each protein.
The method for identifying cobra neurotoxin with high affinity with nicotinic acetylcholine receptor (nAChR) includes the following steps: […]

B1: SEQ ID No. 1 (protein, listed as Naja atra)
chain: LECHNQQSSQTPTTTGCSGGETNCYKKRWRDHRGYRTERGCGCPSVKNGIEINCCTTDRCNN
For B1, in assay [1] (Table 3), the IgG came to 0.35 ± 0.11 µg/mL, the TRF came to 0.17 ± 0.05 µg/mL, the UALB was 1.21 ± 0.14 µg/mL and the a1-MG is 1.02 ± 0.21 µg/mL. The same molecule came in with a β2-MG in assay [1] (Table 3) of 38.90 ± 11.82 ng/mL. In assay [2] (Table 1), the IgG came to 0.34 ± 0.08 µg/mL, the TRF was 0.17 ± 0.08 µg/mL, the UALB stood at 0.89 ± 0.11 µg/mL and the a1-MG was found to be 0.52 ± 0.8 µg/mL. Further, the β2-MG in assay [2] (Table 1) worked out at 29.29 ± 6.93 ng/mL. Also, the “125I-αBtx-nAChR binding inhibitory rate” value in assay [3] is on record as “about 50%”.

B2: SEQ ID No. 2 (protein, listed as Naja atra)
chain: MKTLLLTLLVVTIVCLDLGYTLECHNQQSSQTPTTTGCSGGETNCYKKRWRDHRGYRTERGCGCPSVKNGIEINCCTTDRCNN
Take B2: in assay [1] (Table 4), the IgG came out at 0.31 ± 0.09 µg/mL, the TRF worked out at 0.18 ± 0.06 µg/mL, the UALB is 0.89 ± 0.26 µg/mL and the a1-MG turned out to be 0.96 ± 0.19 µg/mL. Further, in assay [2] (Table 2), the IgG was 0.31 ± 0.15 µg/mL, the TRF is 0.11 ± 0.032 µg/mL, the UALB came out at 0.82 ± 0.21 µg/mL and the a1-MG amounted to 0.74 ± 0.14 µg/mL.
